± gives the half width of the 95% confidence interval.
Key:
[1] = folding stability dG unfold from trypsin proteolysis; higher = more stable
In short: (§1)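 Sequencing followed digestion of designed mini-proteins with trypsin and chymotrypsin, each at 11 concentrations in threefold dilutions together with a no-protease condition. The mini-proteins were under 80 residues, had no cysteine, sat in a PA-tagged cDNA display construct, and were kept only if AlphaFold2 dimer inter-PAE was above 15. From the counts, Bayesian fitting gave K50, and unfolding free energy was derived against a sequence-predicted unfolded-state K50 and a shared folded-state K50, per protease or combined.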

[2] = folding stability dG unfold (combined trypsin and chymotrypsin); higher = more stable
In short: as §1

[3] = folding stability dG unfold from chymotrypsin proteolysis; higher = more stable
In short: as §1

| Sequence | folding stability dG unfold [1] | folding stability dG unfold [2] | folding stability dG unfold [3] |
| --- | --- | --- | --- |
| SAGGSAGGVIRMPFVIPDGYVIKDLTVHWSPGNGMFMIEIEIEPVKPPPPPEISPEELNKKNNKSAGGSAGG [r6_148_TrROS] | 2.15 ± 0.21 kcal/mol | 2.41 ± 0.12 kcal/mol | 2.57 ± 0.04 kcal/mol |
| SAGGSAGGVTINFPDGVTIMVDPGTGKIYIMNPNGYIFKFTIERKPNEWKLKIEPIKPIPPDDFSAGGSAGG [r6_324_TrROS] | 2.55 ± 0.085 kcal/mol | 3.16 ± 0.19 kcal/mol | 3.7 ± 0.091 kcal/mol |
| SAGGSAGGVVVVAKFPTREAVFVAPESLTPEQFAEALRRELGNPDAPLVDLEVRRVTPEELLAASAGGSAGG [r6_120_TrMRF] | -0.269 ± 0.16 kcal/mol | 0.691 ± 0.15 kcal/mol | 1.05 ± 0.12 kcal/mol |
| SAGGSAGGWFYIMFPIPPGYKVEAEWKFPNGPKVKSEIHPDGPIMITIPPGMANMPDFEIKIEPSAGGSAGG [r6_237_TrROS] | 2.35 ± 0.12 kcal/mol | 3.2 ± 0.15 kcal/mol | 3.77 ± 0.084 kcal/mol |
| SAGGSAGGWIPVEELAKEFGFSPDFIEQLMKNGYKIEYEYHEPGWVRLSVENPDNGKKREITFPSAGGSAGG [r6_969_TrROS] | 1.43 ± 0.022 kcal/mol | 1.92 ± 0.053 kcal/mol | 2.183 ± 0.019 kcal/mol |
| SAGGSAGGWIRVDKVEPNPNDDMATVSVEMEDPGDGKKKKFNMTMPSDNPELIDKLPPGDWIEFSAGGSAGG [r6_979_TrROS] | -0.621 ± 0.1 kcal/mol | -0.1 ± 0.096 kcal/mol | 0.215 ± 0.11 kcal/mol |
| SAGGSAGGWPLMVEYTPPGDGKTQTYPIPIKGPLSEIKDQIKENMPPGFREVEISPANIEKILKSAGGSAGG [r6_889_TrROS] | -0.76 ± 0.39 kcal/mol | < -1 kcal/mol | -0.952 ± 0.5 kcal/mol |
| SAGGSAGGWQPIAEHEFENPEDGKKIKIYYWPENGMMRIEFPNGRKHVIPPGDPFKSIEEMIKASAGGSAGG [r6_72_TrROS] | 1.15 ± 0.071 kcal/mol | 1.54 ± 0.14 kcal/mol | 1.81 ± 0.059 kcal/mol |
| SAGGSAGGYIMIPPGAEIDVNPENGKIKIKFRNPDNGEEEKITFDVPPGVKIHMWDNWIMIELPSAGGSAGG [r6_804_TrROS] | 3.3 ± 0.18 kcal/mol | 3.29 ± 0.29 kcal/mol | 3.14 ± 0.12 kcal/mol |
| SAGGSAGGYRIRFKNGIEFKLPMTEGELKKMADNFPGFEVTEVEPVPPPPPPPEDLPPEQREQMSAGGSAGG [r6_881_TrROS] | -0.134 ± 0.36 kcal/mol | -0.0695 ± 0.32 kcal/mol | 0.148 ± 0.23 kcal/mol |
| SAGGSAGIAKKNNLTLKVTVEKKGDKLLVTVEITYPDGTKKTITIELNIKLVPEVPPVHPDEPGFGSAGGSA [r15_843_TrMRF] | 2.58 ± 0.17 kcal/mol | 2.81 ± 0.095 kcal/mol | 2.83 ± 0.1 kcal/mol |
| SAGGSAGKIEIPLPELGEVREEPVPDTVRIEVRFPDGRVLEATVLKDDTIEIREKGTGKLVATLPASAGGSA [r15_656_TrMRF] | 1.44 ± 0.058 kcal/mol | 1.44 ± 0.12 kcal/mol | 1.39 ± 0.043 kcal/mol |
| SAGGSAGKKPVEFKVKIMIFNPENGDMYMIEMTITIDPDGQIKIKIKLPDPPRLPPGMVIFIMVYISAGGSA [r15_488_TrROS] | 4.08 ± 0.16 kcal/mol | 5.01 ± 0.16 kcal/mol | 5.24 ± 0.085 kcal/mol |
| SAGGSAGKPRPIDIWIPLPPGAEEVKIEQLDIFIPDGWRIRIEEIEIDPEDPGYIRVTVKIQPLDDSAGGSA [r15_852_TrROS] | 2.33 ± 0.1 kcal/mol | 2.56 ± 0.16 kcal/mol | 2.78 ± 0.045 kcal/mol |
| SAGGSAGLEGVAKAILDKLPPNRKIAAFTVNEEEAKTATFTTPDGNEINITAAGDKIASIDIIDAESAGGSA [r15_175_TrMRF] | -1.09 ± 0.51 kcal/mol | 0.0224 ± 0.1 kcal/mol | 0.429 ± 0.19 kcal/mol |
| SAGGSAGLRVRLADGSELSVSPIPDKLRVVVTLPNGARIPIDVEDGELVEIVRDPAVPADFYIEEISAGGSA [r15_709_JUSTAS] | 0.419 ± 0.14 kcal/mol | 1.06 ± 0.1 kcal/mol | 1.25 ± 0.043 kcal/mol |
| SAGGSAGLTLTFGDKEITLTPNPDTDTFTGTYPDGKPFTFKLTDDELYITYPDGTKEKIPLKDIKNSAGGSA [r15_448_TrMRF] | 1.58 ± 0.066 kcal/mol | 1.54 ± 0.21 kcal/mol | 1.42 ± 0.17 kcal/mol |
| SAGGSAGMELVPLPSPQLVPLTVETTPLPETGTTLVTETSPLGERTVTRVDPAGNVTTLSSTSTSTSAGGSA [r15_790_JUSTAS] | -0.389 ± 0.033 kcal/mol | -0.226 ± 0.12 kcal/mol | -0.192 ± 0.12 kcal/mol |

Source: the supplement of paper PMC12764529
